A short description of the data set: soluble on expression in E. coli; label from the status in PepcDB or PDB records.
As to “MRRVDQPRPPGTPFGLREQTTSNADAPARTAPPAHPAPERPTGMLGGLTRYVPGDRSGRPPAMPAAAETSRRPTTSARPLPYGGSGSAARMNEAAGHPLRMPQLPQLSDIERARFHSVTTDSQHLRPVRPRMPPPVGASPLRRSTALRPYHDVLSQWQRHYNADRNRWHSAWRQANSNNPQIETRTGRALKATADLLEDATQPGRVALELRSVPLPQFPDQAFRLSHLQHMTIDAAGLMELPDTMQQFAGLETLTLARNPLRALPASIASLNRLRELSIRACPELTELPEPLASTDASGEHQGLVNLQSLRLEWTGIRSLPASIANLQNLKSLKIRNSPLSALGPAIHHLPKLEELDLRGCTALRNYPPIFGGRAPLKRLILKDCSNLLTLPLDIHRLTQLEKLDLRGCVNLSRLPSLIAQLPANCIILVPPHLQAQLDQHRPVARPAEPGRTGPTTPALSPSAAGDRAGPSSSATASELLLTAALERIEDTAQAMLSTVIDEERNPFLEGAPSYLPGKRPTDVTTFGQVPALRDMLAESRDLEFLQRVSDMAGPSPRIEDPSEEGLARHYTNVSNWKAQKSAHLGIVDHLGQFVYHEGSPLDVATLAKAVQMWKTRELIVHAHPQDRARFPELAVHIPEQVSDDSDSEQQTSPEPSGHQ”, the “soluble on expression in E. coli” value is recorded as “soluble”.

In the case of “MEEEGSPDIIIVGAGISGLSTAVGLHRLGIRSMVLESSETLRATGFAFTTWFNAWKAMEALGVSQHIRSLHDRLEGWVVGTISAGTPPTEMLFPESEEYESRCVQRKLLLEALAGELPEETIRFSSKVVHIELSGCYKKVHLSDGTILKTKVLVGCDGVYSVVGKWLGFKNPATTARLAIRGLTHFPEGHGFGKRFFQFYGDGVRSGFIPCDHNTVYWFLTHTSTDIDEETNSEILKEFVLNKIKDLPENIKNVVETTDLDSMVMSQLKYRPPWELLWSNITKDNVCVAGDALHPMTPDIGQGGCSAMEDGVILARCLGEAIKAKSLKGETEENEEEGYKRIEEGLKKYAGERKWRSIDLITTAYTVGFIQQSRGKWMNMFRDRFLSSYLSRMLLKKSHFDCGSLVP”, the “soluble on expression in E. coli” value was “soluble”.

On to “MSLKEELLEAIYGTVERLEQKVDELSASPKNTEAESTPVSVSVDTSKLEKAILAMAVKEGEAIDKLVRLREAICIFTDLTKKEASKDEQRSKLLFDTINQVKQELNATSKNVQDKLHAMDNAPLKKVVTHRFEPTSKYVLLFIGGLALSLVISIWGNLAQWREYQAWEVADLKYRALKMVLPSDDPNVRYIEKHFSVCRDEKVIDDVRNCVAAYEDSIRHHHEMVEMATYKDSIANKLLQESNRIIRAMKSSKEGHHHHHH”, for which the “soluble on expression in E. coli” value is listed as “not soluble”.

Consider “MKKRLSILIAGLASLSVNAATEPWASPEAEVLSRAQIQQVQGKQTYTYVRCWYRPAATHDDPYTTWEWAKNADGSYYTIQGYWWSSIRQKNMFYTTVQPETLLERCEETLGVNHDFADITYFAADHRFSYNHTIWSNDPEVQSNRISKVIAFGDSLSDTGNIFNASQWRFPNPDSWFLGHFSNGFVWTEYLAQGLNVPLYNWAVGGAAGRNQYVALTGVYEQVSSYLSYMRLAKNYQPENSLFTLEFGLNDFMNYNRSLADVKADYSSALIRLIDAGAKNLVLMTLPDATRAPQFQYATQEQIDTVRSKIIGMNAFIREQARYYQMQGIRIVLFDAYTLFDSITTQPEQHGFANANSPCLDIRRNSAADYLLSHSLSAECAKQGSDRFVFWEVTHPTTAIHHYLAEQILATEMAQFPL”, for which the “soluble on expression in E. coli” value is reported as “not soluble”.

Take “MGSDKIHHHHHHMQILKTSDVPTGIVLLDRRLDGGLPAGSFVCVYANPLAMPEAFLYQFATVLKTYYFTTSRPAKFVKQDMEKLRLDTSFVTFVDVYEQYYLNEYGQFIVEDRYRDKEIFDYVDDRLSRIAEEESGEYNVIIDSLSFFLNLNTDWGLKDWLINKLYTLAKEKGVVVYCHLIKNLHPVDVVNKVLDISDVVFDIEVERVGERLVSKFAVPKLRGKRPVTEYFRFYVEEGIQVDTSRDIA”: the “soluble on expression in E. coli” value is given as “not soluble”.

With “MEKGAPQNNADEEAKVEVPPPAPKTTSAERAPEKVSAEKAQEQEKSAMGSVPIPPEREKHIKERKTGYEYSIVTINYKPGTKFGLGIKNVFNKSIYVIKVEENSLVSGIFNVADRIIDVDGEPVYDNAKCKGLLVKALKEKKVCTLLIERGITESALKDATNEMNEEHTQSVMAPPDVKSIMRKLEAHNFLRKSPSCESAAAPNPVPSAMTKNKEGKGERKACILEDGHKSVMIRMDNEENRNKLKKVEPKEPPRRLDPKTPPKPAAPEPKPEGK”, the “soluble on expression in E. coli” value is on record as “not soluble”.

These data come from the DeepSol protein solubility set.
